From patent publication US20260234242A1 (HAINAN SIMCERE ZAIMING PHARMACEUTICAL, published 2026)

T1: human CDH6 on tumor cells (OVCAR3 cells, PA-1 cells) (human, UniProt P55285 54-790)
T1 sequence: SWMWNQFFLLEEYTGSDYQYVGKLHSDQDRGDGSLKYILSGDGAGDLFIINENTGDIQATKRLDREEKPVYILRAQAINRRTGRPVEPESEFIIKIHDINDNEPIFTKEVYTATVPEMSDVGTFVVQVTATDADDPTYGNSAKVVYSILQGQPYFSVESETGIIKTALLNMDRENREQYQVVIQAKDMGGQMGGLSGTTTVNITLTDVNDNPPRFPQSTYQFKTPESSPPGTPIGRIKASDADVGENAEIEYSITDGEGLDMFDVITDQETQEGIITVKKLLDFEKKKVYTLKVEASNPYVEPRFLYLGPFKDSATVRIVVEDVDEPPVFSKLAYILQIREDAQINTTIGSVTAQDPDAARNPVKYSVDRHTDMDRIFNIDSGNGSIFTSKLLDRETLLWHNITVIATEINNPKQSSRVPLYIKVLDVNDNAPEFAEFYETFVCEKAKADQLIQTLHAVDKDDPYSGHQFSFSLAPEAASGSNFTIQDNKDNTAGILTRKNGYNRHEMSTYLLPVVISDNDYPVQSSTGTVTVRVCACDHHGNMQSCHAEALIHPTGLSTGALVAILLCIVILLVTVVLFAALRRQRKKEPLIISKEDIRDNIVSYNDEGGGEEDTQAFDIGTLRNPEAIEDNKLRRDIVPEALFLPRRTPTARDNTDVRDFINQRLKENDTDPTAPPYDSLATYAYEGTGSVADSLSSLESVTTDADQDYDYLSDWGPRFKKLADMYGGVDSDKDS

T2: his-tagged human CDH6 extracellular region protein (hCDH6 ECD-his) (human, UniProt P55285 19-615)
T2 construct: also called Human CDH6-his; hCDH6-his; not shown: his tag
T2 sequence: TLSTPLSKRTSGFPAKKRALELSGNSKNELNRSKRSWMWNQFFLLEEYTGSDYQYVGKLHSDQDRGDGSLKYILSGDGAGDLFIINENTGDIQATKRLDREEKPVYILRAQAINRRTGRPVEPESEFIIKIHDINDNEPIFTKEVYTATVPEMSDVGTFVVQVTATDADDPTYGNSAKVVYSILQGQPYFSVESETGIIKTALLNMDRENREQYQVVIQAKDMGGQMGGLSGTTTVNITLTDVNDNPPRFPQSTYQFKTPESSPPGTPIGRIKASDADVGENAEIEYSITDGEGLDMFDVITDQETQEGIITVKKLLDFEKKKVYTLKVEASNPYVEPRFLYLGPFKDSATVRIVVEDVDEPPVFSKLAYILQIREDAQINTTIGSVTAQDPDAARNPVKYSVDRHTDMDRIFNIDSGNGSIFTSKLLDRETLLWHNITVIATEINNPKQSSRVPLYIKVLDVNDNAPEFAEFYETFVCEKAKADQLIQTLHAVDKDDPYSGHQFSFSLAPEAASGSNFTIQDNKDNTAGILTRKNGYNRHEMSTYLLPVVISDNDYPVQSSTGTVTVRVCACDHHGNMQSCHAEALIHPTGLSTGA


How the values were obtained:
[1] = biological target: T1, human CDH6 on tumor cells (OVCAR3 …); assay: FACS, PA-1 cells
Procedure: OVCAR3 cells with high expression of CDH6 and PA-1 cells with moderate expression of CDH6 were used to detect the binding activity of the antibodies to the cells. […] The cells were washed once with PBS, counted, resuspended to 2×10⁶ cells/mL in an FACS buffer (PBS+2% FBS), and then added to a 96-well plate at 50 μL/well. The chimeric antibodies were diluted with FACS buffer (PBS+2% FBS) and added to the 96-well plate at 50 μL/well, and the plate was incubated at 4° C. for 1 h. […] The dilution was added to the 96-well plate at 50 μL/well, and the plate was incubated at 4° C. for 1 h. After the plates were centrifuged and washed 2 times with PBS, the cells were resuspended in an FACS buffer. The mean fluorescence intensity (MFI) was measured using FACS Canton II (BD). Analysis was performed by the GraphPad Prism software, data were fitted, and EC50 values were calculated. The chimeric antibodies tested had strong binding to both OVCAR3 cells and PA-1 cells.
According to the above sequences, heavy chain (HC) and light chain (LC) plasmids were constructed (the nucleic acid sequences encoding the VH and VL of the antibodies were recombined into an expression vector carrying a signal peptide (SEQ ID NO: 132, […]) and a heavy chain constant region/light chain constant region sequence to obtain recombinant plasmids expressing VH-CH1-Fc/VL-CL). According to the expression and purification methods in Example 2, the hCDH6-14 humanized antibodies were obtained, and the binding activity of the humanized antibodies was detected by ELISA and FACS (see 2.2 and 2.3 for the method).

[2] = biological target: T2, his-tagged human CDH6 extracellular …; assay: ELISA, coated antigen
Procedure: Human CDH6 protein (hCDH6 ECD-his, conventionally synthesized), monkey CDH6 protein (cynoCDH6 ECD-his, conventionally synthesized; the cynoCDH6 ECD sequence was derived from Uniprot #A0A2K5TW62 (19-615)), and murine CDH6 protein (mCDH6 ECD-his, conventionally synthesized; the mCDH6 ECD sequence was derived from Uniprot #P97326 (19-615)) were diluted with PBS to a final concentration of 1 μg/mL, and added to a 96-well ELISA plate at 100 μL/well. The plate was incubated at 4° C. overnight. The next day, the plate was washed 3 times with a plate washing solution (PBS+0.01% (v/v) Tween 20), and a blocking buffer (PBS+0.01% (v/v) Tween 20+2% (w/w) BSA) was added for blocking at room temperature for 2 h. The blocking buffer was discarded, and the plate was washed 3 times. The chimeric antibodies were diluted with 1% BSA+PBS (purchased from Cytiva, Cat. No. SH30264.01) and added to the 96-well plate at 50 μL/well. After incubation at 37° C. for 2 h, the plate was washed 3 times with a plate washing solution. […] The plate was incubated at 37° C. for 1 h and then washed 5 times with a plate washing solution. A TMB substrate (purchased from Seracare, Cat. No. 5120-0077) was added at 50 μL/well and incubated at room temperature for 10 min, then a stop solution (1.0 N HCl) was added at 50 μL/well. OD450 nm values were read using a microplate reader (Biotek). Analysis was performed by the GraphPad Prism software, data were fitted, and EC50 values were calculated. The chimeric antibodies tested all had strong binding to the human CDH6 protein, the monkey CDH6 protein, and the murine CDH6 protein.
According to the above sequences, heavy chain (HC) and light chain (LC) plasmids were constructed (the nucleic acid sequences encoding the VH and VL of the antibodies were recombined into an expression vector carrying a signal peptide (SEQ ID NO: 132, […]) and a heavy chain constant region/light chain constant region sequence to obtain recombinant plasmids expressing VH-CH1-Fc/VL-CL).

Row | Binder | EC50 [1] [nM] | Max MFI [1] [MFI] | EC50 [2] [nM] | Max OD450 [2] [OD450]
1 | hCDH6-14-H1L1 (antibody, V domains shown, Humanized) VH: EVQLVQSGAEVKKPGASVKVSCKASGYTFTDNYINWVRQAPGQRLEWMGWIYPGTGNSYYNEKFKGRVTITVDTSASTAYMELSSLRSEDTAVYYCASSYGDSFDYWGQGTTVTVSS VL: DIQMTQSPSSLSASVGDRVTITCRASQDIRNYLNWYQQKPGKAFKLLISYTSRLHSGVPSRFSGSGSGTDFTFTISSLQPEDIATYYCQQYSQLPWTFGGGTKVEIK | 0.26 | 3680 | 0.059 | 2.69
2 | hCDH6-14-H2L2 (antibody, V domains shown, Humanized) VH: EIQLVQSGAEVKKPGASVKVSCKASGYTFTDNYINWVRQAPGQRLEWMGWIYPGTGNSYYNEKFKGRVTITVDTSASTAYMELSSLRSEDTAVYYCASSYGDSFDYWGQGTTVTVSS VL: DIQMTQSPSSLSASVGDRVTITCRASQDIRNYLNWYQQKPGGAPKLLISYTSRLHSGVPSRFSGSGSGTDFTFTISSLQPEDIATYYCQQYSQLPWTFGGGTKVEIK | 0.27 | 3930 | 0.098 | 2.54
3 | hCDH6-14-H4L2 (antibody, V domains shown, Humanized) VH: EVQLVQSGAEVKKPGASVKVSCKASGYTFTDNYINWVRQAPGQGLEWMGWIYPGTGNSYYNEKFKGRVTITVDTSASTAYMELSSLRSEDTAVYYCASSYGDSFDYWGQGTTVTVSS VL: DIQMTQSPSSLSASVGDRVTITCRASQDIRNYLNWYQQKPGGAPKLLISYTSRLHSGVPSRFSGSGSGTDFTFTISSLQPEDIATYYCQQYSQLPWTFGGGTKVEIK | 0.26 | 3570 | 0.089 | 2.64
4 | hCDH6-14-H3L1 (antibody, V domains shown, Humanized) VH: EIQLVQSGAEVKKPGASVKVSCKASGYTFTDNYINWVRQAPGQRLEWMGWIYPGTGNSYYNEKFKGRVTLTVDTSASTAYMELSSLRSEDTAVYYCASSYGDSFDYWGQGTTVTVSS VL: DIQMTQSPSSLSASVGDRVTITCRASQDIRNYLNWYQQKPGKAFKLLISYTSRLHSGVPSRFSGSGSGTDFTFTISSLQPEDIATYYCQQYSQLPWTFGGGTKVEIK | 0.26 | 3490 | 0.096 | 2.62
5 | hCDH6-14-H4L1 (antibody, V domains shown, Humanized) VH: EVQLVQSGAEVKKPGASVKVSCKASGYTFTDNYINWVRQAPGQGLEWMGWIYPGTGNSYYNEKFKGRVTITVDTSASTAYMELSSLRSEDTAVYYCASSYGDSFDYWGQGTTVTVSS VL: DIQMTQSPSSLSASVGDRVTITCRASQDIRNYLNWYQQKPGKAFKLLISYTSRLHSGVPSRFSGSGSGTDFTFTISSLQPEDIATYYCQQYSQLPWTFGGGTKVEIK | 0.25 | 3820 | 0.052 | 2.62

Further binders by falling EC50 [1], results first:

Row | EC50 [1] [nM] | Max MFI [1] [MFI] | EC50 [2] [nM] | Max OD450 [2] [OD450] | Binder
6 | 0.25 | 3560 | 0.076 | 2.65 | hCDH6-14-H2L1 (antibody, V domains shown, Humanized) VH: EIQLVQSGAEVKKPGASVKVSCKASGYTFTDNYINWVRQAPGQRLEWMGWIYPGTGNSYYNEKFKGRVTITVDTSASTAYMELSSLRSEDTAVYYCASSYGDSFDYWGQGTTVTVSS VL: DIQMTQSPSSLSASVGDRVTITCRASQDIRNYLNWYQQKPGKAFKLLISYTSRLHSGVPSRFSGSGSGTDFTFTISSLQPEDIATYYCQQYSQLPWTFGGGTKVEIK
7 | 0.25 | 3780 | 0.079 | 2.81 | hCDH6-14-H5L1 (antibody, V domains shown, Humanized) VH: EVQLQQSGAEVKKPGASVKVSCKASGYTFTDNYINWVRQAPGQRLEWMGWIYPGTGNSYYNEKFKGRVTITVDTSASTAYMELSSLRSEDTAVYYCASSYGDSFDYWGQGTTVTVSS VL: DIQMTQSPSSLSASVGDRVTITCRASQDIRNYLNWYQQKPGKAFKLLISYTSRLHSGVPSRFSGSGSGTDFTFTISSLQPEDIATYYCQQYSQLPWTFGGGTKVEIK
8 | 0.23 | 3490 | 0.074 | 2.63 | hCDH6-14-H3L2 (antibody, V domains shown, Humanized) VH: EIQLVQSGAEVKKPGASVKVSCKASGYTFTDNYINWVRQAPGQRLEWMGWIYPGTGNSYYNEKFKGRVTLTVDTSASTAYMELSSLRSEDTAVYYCASSYGDSFDYWGQGTTVTVSS VL: DIQMTQSPSSLSASVGDRVTITCRASQDIRNYLNWYQQKPGGAPKLLISYTSRLHSGVPSRFSGSGSGTDFTFTISSLQPEDIATYYCQQYSQLPWTFGGGTKVEIK
9 | 0.23 | 3320 | 0.109 | 2.58 | hCDH6-14-H5L2 (antibody, V domains shown, Humanized) VH: EVQLQQSGAEVKKPGASVKVSCKASGYTFTDNYINWVRQAPGQRLEWMGWIYPGTGNSYYNEKFKGRVTITVDTSASTAYMELSSLRSEDTAVYYCASSYGDSFDYWGQGTTVTVSS VL: DIQMTQSPSSLSASVGDRVTITCRASQDIRNYLNWYQQKPGGAPKLLISYTSRLHSGVPSRFSGSGSGTDFTFTISSLQPEDIATYYCQQYSQLPWTFGGGTKVEIK
10 | 0.22 | 3600 | 0.128 | 2.84 | hCDH6-14-H1L2 (antibody, V domains shown, Humanized) VH: EVQLVQSGAEVKKPGASVKVSCKASGYTFTDNYINWVRQAPGQRLEWMGWIYPGTGNSYYNEKFKGRVTITVDTSASTAYMELSSLRSEDTAVYYCASSYGDSFDYWGQGTTVTVSS VL: DIQMTQSPSSLSASVGDRVTITCRASQDIRNYLNWYQQKPGGAPKLLISYTSRLHSGVPSRFSGSGSGTDFTFTISSLQPEDIATYYCQQYSQLPWTFGGGTKVEIK
